According to the supplement of paper PMC10065799, “High-throughput profiling of sequence recognition by tyrosine kinases and SH2 domains using bacterial peptide display” (eLife, 2023):

How the values were obtained:
c-Src SH2 = assay: SH2 binding enrichment of the phosphorylated peptide, bacterial display (enrichment ratio); higher = better substrate or ligand; peptides without Tyr show the background
SHP2-C SH2 = assay: as above
Grb2 SH2 = Grb2 SH2 (UniProt P62993); assay: as above
Fer (mouse) = assay: phosphorylation enrichment, bacterial display (enrichment ratio); higher = better substrate or ligand; peptides without Tyr show the background
Fes = Fes (UniProt P07332); assay: as above
Fes, sequence (P07332 whole entry, looked up): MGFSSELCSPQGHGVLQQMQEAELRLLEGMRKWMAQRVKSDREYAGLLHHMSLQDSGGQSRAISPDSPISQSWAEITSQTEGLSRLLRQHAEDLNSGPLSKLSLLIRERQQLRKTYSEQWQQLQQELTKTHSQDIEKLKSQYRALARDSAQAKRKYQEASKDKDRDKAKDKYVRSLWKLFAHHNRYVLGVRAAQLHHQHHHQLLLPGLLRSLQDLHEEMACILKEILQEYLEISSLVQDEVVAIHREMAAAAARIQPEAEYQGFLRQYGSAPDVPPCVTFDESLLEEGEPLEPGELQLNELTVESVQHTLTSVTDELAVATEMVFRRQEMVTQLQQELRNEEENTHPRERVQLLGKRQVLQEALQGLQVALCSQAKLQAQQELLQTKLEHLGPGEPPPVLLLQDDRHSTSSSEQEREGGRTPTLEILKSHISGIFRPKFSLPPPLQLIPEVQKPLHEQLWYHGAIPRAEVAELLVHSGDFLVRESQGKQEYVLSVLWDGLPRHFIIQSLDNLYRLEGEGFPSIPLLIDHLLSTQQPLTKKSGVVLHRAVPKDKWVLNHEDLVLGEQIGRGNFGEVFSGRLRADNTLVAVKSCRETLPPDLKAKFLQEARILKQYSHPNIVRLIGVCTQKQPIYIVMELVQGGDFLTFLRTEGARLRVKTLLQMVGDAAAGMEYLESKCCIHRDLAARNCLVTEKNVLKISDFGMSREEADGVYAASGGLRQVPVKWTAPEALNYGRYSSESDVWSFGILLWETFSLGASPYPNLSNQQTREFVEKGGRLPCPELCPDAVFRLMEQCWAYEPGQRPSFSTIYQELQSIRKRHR

Jak2 = Jak2 (UniProt O60674); assay: as above
FGFR3 = FGFR3 (UniProt P22607); assay: as above
FGFR3, sequence (P22607 whole entry, looked up): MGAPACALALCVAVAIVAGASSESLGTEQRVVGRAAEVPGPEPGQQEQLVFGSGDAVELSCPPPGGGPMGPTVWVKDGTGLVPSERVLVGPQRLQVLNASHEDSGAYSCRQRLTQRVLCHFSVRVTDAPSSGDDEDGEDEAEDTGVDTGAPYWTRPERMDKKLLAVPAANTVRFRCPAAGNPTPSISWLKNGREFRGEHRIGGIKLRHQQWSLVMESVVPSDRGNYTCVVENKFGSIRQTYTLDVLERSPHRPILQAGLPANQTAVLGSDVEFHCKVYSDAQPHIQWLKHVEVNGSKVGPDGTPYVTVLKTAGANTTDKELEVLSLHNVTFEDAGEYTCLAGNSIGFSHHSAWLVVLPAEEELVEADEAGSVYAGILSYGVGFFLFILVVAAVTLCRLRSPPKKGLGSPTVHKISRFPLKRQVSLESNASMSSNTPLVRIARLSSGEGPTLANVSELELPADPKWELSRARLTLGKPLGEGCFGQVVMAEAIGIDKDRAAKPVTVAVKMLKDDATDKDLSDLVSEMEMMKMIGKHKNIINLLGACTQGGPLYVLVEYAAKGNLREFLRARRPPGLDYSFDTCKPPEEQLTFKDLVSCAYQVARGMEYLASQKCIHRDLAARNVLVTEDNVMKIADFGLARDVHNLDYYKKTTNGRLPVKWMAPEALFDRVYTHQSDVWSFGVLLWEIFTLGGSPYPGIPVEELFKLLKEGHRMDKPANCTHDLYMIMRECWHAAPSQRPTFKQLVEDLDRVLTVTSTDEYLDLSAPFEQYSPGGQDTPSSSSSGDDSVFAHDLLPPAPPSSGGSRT

Hck = Hck (UniProt P08631); assay: as above
Hck, sequence (P08631 whole entry, looked up): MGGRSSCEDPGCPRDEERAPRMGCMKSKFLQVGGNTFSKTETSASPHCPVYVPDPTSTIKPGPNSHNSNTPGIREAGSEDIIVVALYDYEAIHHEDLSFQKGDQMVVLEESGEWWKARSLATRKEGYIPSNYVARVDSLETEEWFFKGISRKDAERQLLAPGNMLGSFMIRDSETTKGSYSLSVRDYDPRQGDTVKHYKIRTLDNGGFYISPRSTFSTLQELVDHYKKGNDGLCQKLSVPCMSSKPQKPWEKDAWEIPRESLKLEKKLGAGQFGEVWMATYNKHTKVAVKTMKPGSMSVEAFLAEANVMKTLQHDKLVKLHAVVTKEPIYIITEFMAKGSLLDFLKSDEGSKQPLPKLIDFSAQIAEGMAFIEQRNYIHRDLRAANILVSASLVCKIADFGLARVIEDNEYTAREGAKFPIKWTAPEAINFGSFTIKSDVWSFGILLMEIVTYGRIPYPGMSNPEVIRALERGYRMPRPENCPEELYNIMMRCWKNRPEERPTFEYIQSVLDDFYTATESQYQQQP

AncSZ = assay: as above
FGFR1 = FGFR1 (UniProt P11362); assay: as above
FGFR1, sequence (P11362 whole entry, looked up): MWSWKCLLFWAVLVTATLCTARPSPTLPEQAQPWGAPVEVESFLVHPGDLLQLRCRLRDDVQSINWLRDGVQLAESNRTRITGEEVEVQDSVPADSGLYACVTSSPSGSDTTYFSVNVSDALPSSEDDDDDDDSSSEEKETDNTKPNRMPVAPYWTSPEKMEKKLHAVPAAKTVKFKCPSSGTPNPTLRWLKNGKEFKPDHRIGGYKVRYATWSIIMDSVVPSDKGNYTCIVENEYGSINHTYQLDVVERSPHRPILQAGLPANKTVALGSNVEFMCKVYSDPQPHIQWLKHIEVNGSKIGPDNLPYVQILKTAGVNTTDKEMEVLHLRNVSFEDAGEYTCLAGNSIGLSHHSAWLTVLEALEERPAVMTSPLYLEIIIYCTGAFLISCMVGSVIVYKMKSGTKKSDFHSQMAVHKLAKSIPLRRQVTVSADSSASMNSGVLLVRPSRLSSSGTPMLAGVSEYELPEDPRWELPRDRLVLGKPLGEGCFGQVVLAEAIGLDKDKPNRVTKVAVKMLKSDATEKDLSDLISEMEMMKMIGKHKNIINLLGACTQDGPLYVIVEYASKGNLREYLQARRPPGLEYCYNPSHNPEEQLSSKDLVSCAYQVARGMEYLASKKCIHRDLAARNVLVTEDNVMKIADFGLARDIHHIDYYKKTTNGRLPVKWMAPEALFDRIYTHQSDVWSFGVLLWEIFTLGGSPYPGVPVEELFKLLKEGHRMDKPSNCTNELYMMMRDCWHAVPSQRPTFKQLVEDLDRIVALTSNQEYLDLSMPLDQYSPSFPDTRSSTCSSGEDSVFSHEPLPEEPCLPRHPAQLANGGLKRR

c-Src = assay: as above
Fyn = Fyn (UniProt P06241); assay: as above
Fyn, sequence (P06241 whole entry, looked up): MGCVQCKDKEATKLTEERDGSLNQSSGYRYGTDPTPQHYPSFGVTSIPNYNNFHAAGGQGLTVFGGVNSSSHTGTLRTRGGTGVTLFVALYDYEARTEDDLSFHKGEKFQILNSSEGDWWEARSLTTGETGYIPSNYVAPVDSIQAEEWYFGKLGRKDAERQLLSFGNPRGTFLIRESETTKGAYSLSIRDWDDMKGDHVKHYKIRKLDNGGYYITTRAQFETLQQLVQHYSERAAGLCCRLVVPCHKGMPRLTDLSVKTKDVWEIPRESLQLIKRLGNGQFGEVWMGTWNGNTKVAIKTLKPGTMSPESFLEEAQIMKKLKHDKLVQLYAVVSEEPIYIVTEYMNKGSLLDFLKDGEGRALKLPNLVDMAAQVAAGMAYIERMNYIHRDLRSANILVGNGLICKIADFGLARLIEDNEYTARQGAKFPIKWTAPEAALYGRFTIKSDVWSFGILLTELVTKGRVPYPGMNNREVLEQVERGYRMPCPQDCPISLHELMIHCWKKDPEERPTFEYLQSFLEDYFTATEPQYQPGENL

c-Abl (mouse) = assay: as above
EPHB2 = EPHB2 (UniProt P29323); assay: as above
EPHB1 = EPHB1 (UniProt P54762); assay: as above
EPHB1, sequence (P54762 whole entry, looked up): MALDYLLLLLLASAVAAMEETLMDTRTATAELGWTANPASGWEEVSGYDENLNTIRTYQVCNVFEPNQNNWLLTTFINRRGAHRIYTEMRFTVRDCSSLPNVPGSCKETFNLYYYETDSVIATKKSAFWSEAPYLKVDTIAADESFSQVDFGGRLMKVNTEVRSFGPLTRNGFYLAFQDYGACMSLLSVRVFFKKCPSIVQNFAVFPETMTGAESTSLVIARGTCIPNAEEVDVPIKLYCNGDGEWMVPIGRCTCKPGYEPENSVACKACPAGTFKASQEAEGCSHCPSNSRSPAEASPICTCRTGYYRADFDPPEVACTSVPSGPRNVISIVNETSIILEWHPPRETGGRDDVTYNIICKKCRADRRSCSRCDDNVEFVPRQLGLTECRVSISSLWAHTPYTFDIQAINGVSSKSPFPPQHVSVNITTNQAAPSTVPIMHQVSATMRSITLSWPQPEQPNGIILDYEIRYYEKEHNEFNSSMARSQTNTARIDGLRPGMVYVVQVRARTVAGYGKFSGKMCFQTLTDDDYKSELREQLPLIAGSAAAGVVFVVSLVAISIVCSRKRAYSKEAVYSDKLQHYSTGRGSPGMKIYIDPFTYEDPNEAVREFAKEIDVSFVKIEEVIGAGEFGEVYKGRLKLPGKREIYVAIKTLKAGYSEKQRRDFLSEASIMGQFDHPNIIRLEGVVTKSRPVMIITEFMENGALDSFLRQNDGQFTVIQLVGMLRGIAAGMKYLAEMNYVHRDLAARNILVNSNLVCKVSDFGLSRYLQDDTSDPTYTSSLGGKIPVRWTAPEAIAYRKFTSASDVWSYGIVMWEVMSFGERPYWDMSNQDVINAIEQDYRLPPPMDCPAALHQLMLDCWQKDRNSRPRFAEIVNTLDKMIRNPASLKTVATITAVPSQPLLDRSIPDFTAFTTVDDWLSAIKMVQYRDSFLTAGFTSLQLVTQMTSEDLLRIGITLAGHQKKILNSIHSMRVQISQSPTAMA

MERTK = MERTK (UniProt Q12866); assay: as above
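Wherever SH2 binding enrichment of the phosphorylated peptide, bacterial display is given: peptide library displayed on the E. coli surface as eCPX fusions, selected cells deep-sequenced, score is each peptide's frequency after selection divided by its frequency in the input.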
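Wherever phosphorylation enrichment, bacterial display is given: 11-residue human phosphosite peptides and single-mutation variants displayed on the E. coli surface, counted by deep sequencing, each peptide's frequency after selection divided by its frequency in the unselected input library; frequency after pTyr selection over input frequency; kinase dosed for 20-30% of maximal phosphorylation in three min.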

Grb2 SH2, sequence (P62993 whole entry, looked up): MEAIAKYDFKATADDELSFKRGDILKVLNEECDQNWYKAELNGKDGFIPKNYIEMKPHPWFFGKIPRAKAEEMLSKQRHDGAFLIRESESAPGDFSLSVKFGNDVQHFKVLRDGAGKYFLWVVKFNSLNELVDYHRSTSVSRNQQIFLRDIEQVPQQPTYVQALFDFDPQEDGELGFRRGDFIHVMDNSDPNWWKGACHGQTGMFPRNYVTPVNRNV

| Sequence | SH2 binding enrichment (c-Src SH2) | SH2 binding enrichment (SHP2-C SH2) | SH2 binding enrichment (Grb2 SH2) | phosphorylation enrichment (Fer (mouse)) | phosphorylation enrichment (Fes) | phosphorylation enrichment (Jak2) | phosphorylation enrichment (FGFR3) | phosphorylation enrichment (Hck) | phosphorylation enrichment (AncSZ) | phosphorylation enrichment (FGFR1) | phosphorylation enrichment (c-Src) | phosphorylation enrichment (Fyn) | phosphorylation enrichment (c-Abl (mouse)) | phosphorylation enrichment (EPHB2) | phosphorylation enrichment (EPHB1) | phosphorylation enrichment (MERTK) |
| --- | --- | --- | --- | --- | --- | --- | --- | --- | --- | --- | --- | --- | --- | --- | --- | --- |
| GAVDTYCRHNY [HLA-DRB1_Y107_A102G] | 0.518 | 0.721 | 0.827 | 0.374 | 0.763 | 0.708 | 0.594 | 0.475 | 0.724 | 0.531 | 0.575 | 0.443 | 0.755 | 0.418 | 0.475 | 0.443 |
| KLIETYSSKNY [PLP1_Y50_F51S] | 0.522 | 0.703 | 0.912 | 0.44 | 0.838 | 0.653 | 0.619 | 0.536 | 0.649 | 0.584 | 0.543 | 0.429 | 0.591 | 0.759 | 0.684 | 0.539 |
| SDPIIYTLENI [ADGRE1_Y534] | 0.519 | 0.777 | 0.936 | 7.52 | 1.31 | 0.948 | 0.724 | 1.49 | 0.963 | 0.491 | 5.13 | 7.17 | 0.653 | 0.559 | 0.568 | 1.43 |
| GGSSPYSRRLP [CDK13_Y351] | 0.525 | 0.609 | 0.709 | 0.317 | 0.501 | 0.4 | 0.39 | 0.358 | 0.549 | 0.393 | 0.393 | 0.403 | 0.504 | 0.314 | 0.327 | 0.414 |
| EQKKYYNAMKK [SCN5A_Y1495] | 0.85 | 1.07 | 0.818 | 0.353 | 0.649 | 0.613 | 0.4 | 0.34 | 0.551 | 0.342 | 0.34 | 0.3 | 0.519 | 0.332 | 0.368 | 0.305 |
| DVQNAYDSNHC [ZFYVE16_Y36] | 0.644 | 0.95 | 1.06 | 0.555 | 0.949 | 0.681 | 0.719 | 0.533 | 0.999 | 0.487 | 0.495 | 0.495 | 0.723 | 0.495 | 0.505 | 0.574 |
| EKKKFYDAKIE [CASP5_Y104_T106A_YF] | 0.453 | 0.783 | 0.686 | 0.435 | 0.803 | 1.05 | 0.534 | 0.468 | 0.751 | 0.431 | 0.466 | 0.369 | 0.718 | 0.409 | 0.4 | 0.349 |
| YKEQGYHRLPP [RIN1_Y681] | 0.904 | 0.917 | 1.11 | 0.365 | 0.507 | 0.977 | 0.544 | 0.35 | 0.478 | 0.622 | 0.431 | 0.462 | 0.455 | 0.364 | 0.363 | 0.346 |
| QPTPGYEVGQR [TSC2_Y1788_E1783Q] | 0.572 | 0.666 | 1.07 | 0.21 | 0.759 | 0.444 | 0.621 | 0.535 | 0.637 | 0.609 | 0.329 | 0.541 | 0.443 | 0.474 | 0.454 | 0.255 |
| KRLKDYLTVLQ [USP25_Y425] | 0.569 | 0.573 | 0.933 | 0.431 | 0.664 | 0.625 | 0.522 | 0.322 | 0.679 | 0.506 | 0.403 | 0.349 | 0.783 | 0.412 | 0.422 | 0.352 |
| LEEFQYIGELQ [MSH2_Y856_S860L] | 0.591 | 0.986 | 1.16 | 0.656 | 2.04 | 2.39 | 1.08 | 0.908 | 1.92 | 0.793 | 0.738 | 0.718 | 1.33 | 0.788 | 0.892 | 0.716 |
| VFSSDYFSFVL [USP24_Y2138_YF] | 0.428 | 0.764 | 0.885 | 0.681 | 1.34 | 4.95 | 6.6 | 1.24 | 2.28 | 8.46 | 4.09 | 2.61 | 1.93 | 1.03 | 1.73 | 1.65 |
| FQKDVYDIPPS [NEDD9_Y177_YF] | 0.466 | 0.745 | 0.871 | 0.502 | 0.681 | 0.629 | 0.559 | 2.69 | 1.01 | 0.384 | 2.62 | 2.59 | 0.662 | 2.01 | 0.681 | 7.04 |
| PATFTYDEFKK [COL8A2_Y648_YF] | 0.791 | 0.53 | 1.03 | 1.68 | 1.43 | 1.3 | 1.12 | 2.06 | 1.49 | 0.77 | 1.68 | 1.9 | 0.864 | 1.24 | 1.38 | 0.677 |
| NSNAAYEQSHF [LRIF1_Y714] | 0.769 | 0.663 | 0.755 | 0.417 | 0.616 | 0.418 | 0.55 | 0.445 | 0.575 | 0.48 | 0.395 | 0.504 | 0.574 | 0.479 | 0.327 | 0.388 |
| YSPYDYQPCLA [TNS1_Y798] | 0.647 | 0.546 | 0.746 | 3.46 | 1.28 | 1.07 | 1.84 | 2.41 | 2.3 | 2.63 | 3.49 | 4.27 | 0.973 | 4.75 | 3.32 | 5.67 |
| KLASTYREAAT [DEAF1_Y483_H479L] | 0.418 | 0.508 | 0.787 | 0.267 | 0.494 | 0.309 | 0.351 | 0.318 | 0.353 | 0.352 | 0.273 | 0.371 | 0.432 | 0.337 | 0.343 | 0.344 |

| Sequence | SH2 binding enrichment (c-Src SH2) | SH2 binding enrichment (SHP2-C SH2) | SH2 binding enrichment (Grb2 SH2) | phosphorylation enrichment (Fer (mouse)) | phosphorylation enrichment (Fes) | phosphorylation enrichment (Jak2) | phosphorylation enrichment (FGFR3) | phosphorylation enrichment (Hck) | phosphorylation enrichment (AncSZ) | phosphorylation enrichment (FGFR1) | phosphorylation enrichment (c-Src) | phosphorylation enrichment (Fyn) | phosphorylation enrichment (c-Abl (mouse)) | phosphorylation enrichment (EPHB2) | phosphorylation enrichment (EPHB1) | phosphorylation enrichment (MERTK) |
| --- | --- | --- | --- | --- | --- | --- | --- | --- | --- | --- | --- | --- | --- | --- | --- | --- |
| GVASDYKCIDP [VPS13B_Y1991] | 0.65 | 0.524 | 0.888 | 0.587 | 1.01 | 0.703 | 0.827 | 0.747 | 1.08 | 0.724 | 0.427 | 0.548 | 0.496 | 0.589 | 0.739 | 0.365 |
| PVADRYDQSFE [MAPK14_Y323_P322R] | 0.945 | 0.838 | 0.926 | 0.518 | 1.5 | 1.1 | 0.796 | 0.441 | 0.867 | 0.653 | 0.717 | 0.589 | 0.844 | 0.695 | 0.475 | 0.448 |
| RLLVVYPWTQK [HBG1_Y36_R41K] | 1.76 | 2.19 | 2.31 | 0.468 | 0.926 | 0.63 | 0.69 | 0.547 | 0.842 | 0.473 | 0.388 | 0.508 | 0.617 | 0.529 | 0.581 | 0.32 |
| TIEDSYRKQVV [KRAS_Y40] | 0.428 | 0.6 | 0.818 | 0.348 | 0.79 | 0.703 | 0.561 | 0.358 | 0.62 | 0.398 | 0.426 | 0.388 | 0.599 | 0.371 | 0.383 | 0.369 |
| GEIQEYGAPSD [ABCC1_Y1508] | 0.507 | 0.648 | 0.745 | 0.481 | 1.05 | 0.891 | 0.662 | 0.505 | 1.07 | 0.523 | 0.438 | 0.506 | 0.757 | 0.544 | 0.493 | 0.476 |
| GLIPAYHRFIM [NMNAT1_Y64_V67F] | 1.44 | 1.37 | 1.39 | 0.418 | 0.822 | 1.31 | 0.687 | 0.494 | 0.734 | 0.553 | 0.616 | 0.535 | 0.619 | 0.423 | 0.521 | 0.593 |
| SSVKPYRVYCD [FGB_Y266] | 1.29 | 0.94 | 1.07 | 0.42 | 0.791 | 0.657 | 0.516 | 0.442 | 0.659 | 0.463 | 0.519 | 0.464 | 0.52 | 0.564 | 0.449 | 0.401 |
| NMSRIYSTTKV [ACE_Y151_A154T] | 0.396 | 1.06 | 0.972 | 0.319 | 0.443 | 0.421 | 0.36 | 0.382 | 0.441 | 0.341 | 0.431 | 0.425 | 0.583 | 0.302 | 0.296 | 0.366 |
| TLSGIYQFSIA [FOXL2_Y81_I84S_YF] | 0.533 | 0.836 | 1 | 6.02 | 1.04 | 0.919 | 0.952 | 3.82 | 1.31 | 0.852 | 5.19 | 5.53 | 1.27 | 1.05 | 1.63 | 6 |
| ENGPFYASFPP [GDAP2_Y488_T489A_YF] | 0.744 | 0.523 | 0.852 | 7.77 | 0.858 | 0.951 | 2.07 | 8.77 | 0.819 | 3.05 | 7.57 | 9.94 | 14.9 | 10.4 | 9.38 | 11.5 |
| GADDSYYTARS [ZAP70_Y492] | 0.556 | 0.447 | 0.816 | 0.482 | 1.05 | 1 | 0.652 | 0.737 | 1 | 0.551 | 0.742 | 0.594 | 0.938 | 0.517 | 0.488 | 0.43 |
| ITVCDYTNPCP [MYD88_Y276_T281P] | 0.686 | 0.85 | 1.07 | 0.396 | 0.829 | 0.689 | 0.551 | 0.354 | 1.49 | 0.443 | 0.943 | 0.428 | 0.551 | 0.482 | 0.561 | 0.333 |
| LDTIQYSKHPP [SQSTM1_Y433] | 0.408 | 0.771 | 0.652 | 0.583 | 1.73 | 1.07 | 1.08 | 0.695 | 1.01 | 0.6 | 0.649 | 0.917 | 0.75 | 0.998 | 0.778 | 0.792 |
| FIATQYSLRPR [LBR_Y166_YF] | 0.477 | 0.973 | 1.01 | 0.399 | 0.671 | 0.551 | 0.471 | 0.454 | 0.635 | 0.532 | 0.464 | 0.458 | 0.525 | 0.518 | 0.39 | 0.506 |
| SEKVVYRRFTE [NCF1_Y41] | 0.42 | 0.44 | 0.752 | 0.387 | 0.671 | 0.61 | 0.472 | 0.414 | 0.663 | 0.406 | 0.438 | 0.432 | 0.527 | 0.423 | 0.39 | 0.438 |
| MKALGYFAVVK [OPA1_Y498_T503K] | 0.595 | 0.913 | 0.792 | 0.596 | 1.25 | 1 | 0.692 | 0.48 | 1.05 | 0.51 | 0.397 | 0.464 | 0.767 | 0.569 | 0.507 | 0.439 |
